IC50 of sCD4 for inhibition of infection of CD4+CCR5+ Cf2Th cells by recombinant HIV-1(YU2), luciferase activity and IC50 of sCD4 for inhibition of infection of CD4+CCR5+ Cf2Th cells by recombinant HIV-1(AD8), luciferase activity data for one substance are collected here from article PMC2655723.

The target of assay [1] is Full-length HIV-1 YU2 envelope glycoproteins (HIV-1, strain YU2) (UniProt P35961).
Assay [2] addresses HIV-1 AD8 envelope glycoproteins (HIV-1, strain AD8).

As for “Four-domain soluble CD4 (domain or fragment)”, the IC50 of sCD4 for inhibition of infection of CD4+CCR5+ Cf2Th cells by recombinant HIV-1(YU2), luciferase activity in assay [1] turned out to be 12 nM. For the same substance, the IC50 of sCD4 for inhibition of infection of CD4+CCR5+ Cf2Th cells by recombinant HIV-1(AD8), luciferase activity in assay [2] is 80 nM.
